Test results: the RNAGym collection of RNA variant scans (doi:10.7554/elife.80360)

B1: Hairpin Ribozyme (parent)
chain: GUCCUCUUUCACGUGCGCGUGAAAGAGAGAAGUGAACCAGAGAAACACACGUUGUGGUAUAUUACCUGGUA

Variants of: B1
Assay: self-cleavage, relative activity (ratio to wild type); higher = more cleavage; co-transcriptional

Variant | self-cleavage
GUCCUCUUUCACGUGCGCGUGAAAGAGAGAAGUGAACCACAGAAACACACGUUGUGGGAUAUUACCUGGUA [G40C U58G] | 0.199
GUACUCUUUCACGUGCGCGUGAAAGAGAGAAGUGAACCAGAGAAACAGACGUUGUGGUAUAUUACCUGGUA [C3A C48G] | 0.158
UUCCUCUUUCACGUGCGCGUGAAAGAGAGAAGUGAACCAGAGAAACACACGUUGUGGUAUAAUACCUGGUA [G1U U62A] | 0.147
GUCCUCUUUCACGUGCGCGUGAAAGAGAGAAGUGAACCAGAGAAACACGCGUUGUGGUAUAGUACCUGGUA [A49G U62G] | 0.0712
GGCCUCUUUCACGUGCGCGUGAAAGAGAGAAGUGAACCAGAGAAACACCCGUUGUGGUAUAUUACCUGGUA [U2G A49C] | 0.0246
GUCCGCUUUCACGUGUGCGUGAAAGAGAGAAGUGAACCAGAGAAACACACGUUGUGGUAUAUUACCUGGUA [U5G C16U] | 0.269
GUCCUCUUUCACGUGCGCUUGAAAGAGAGAAGUGAACCAGAGAAUCACACGUUGUGGUAUAUUACCUGGUA [G19U A45U] | 0.145
AUCCUCUUUCACGUGCGCGUGAAAGAGAGAAGUGAACCAGAGAAACACACGUUGUGGUAUAUCACCUGGUA [G1A U63C] | 0.166
GUCCUCUUUCACGCGCGCGUGAAAGAGAGAAGUGAACCAGAGAAACACACGUUGUGGUAUAUUACCUCGUA [U14C G68C] | 0.212
GUCCUCUUUCACGUGCGCAUGAAAGAGAGAAGUGAACCAGAAAAACACACGUUGUGGUAUAUUACCUGGUA [G19A G42A] | 0.202
GUCCUCUUUCACGUGCGCGUGAAAGAGAGAAGUAAACCAGAGAAACAGACGUUGUGGUAUAUUACCUGGUA [G34A C48G] | 0.17
GUCCUCUUUCACGUGCGCGUGAAAGAGAGAAGUGAACCGGAGAAACACCCGUUGUGGUAUAUUACCUGGUA [A39G A49C] | 0.176
GUCCUCUUUCACGUGCGCGUGAAAGAGACAAGUGAACCAGAGAAACACACGUUGUGUUAUAUUACCUGGUA [G29C G57U] | 0.142
GUCCUCUUUCACGUGCGCGUGAAAGAGAGAAGUGAACCAGAGAAACACACGUUGUGCUAUAUUACCUCGUA [G57C G68C] | 0.21
GUCCUCUUUCACGUGCGCGUGAAGGAGAGAAGUGAACCAGAGAAACACACGUUGUGGUACAUUACCUGGUA [A24G U60C] | 0.936
GUCCUCUUUCACGUGCGCGUGAAAGAGAGAAGUGAACCAGAGAAACACACGUUGUGGUAUAAUACCUGGUA [U62A] | 0.185
GUCCUCUUUCACGUGCGCGUGAAAGAGAGAAGUGGACCAGAGAAACACACGUUGGGGUAUAUUACCUGGUA [A35G U55G] | 0.283
GUCCUCUUUCACGUGCGCGUGAAAGAGAGAAGUGAACCGGAGAAACACACGUUGUGGUAGAUUACCUGGUA [A39G U60G] | 0.21
GUCCCCUUUCACGUGCGCGUCAAAGAGAGAAGUGAACCAGAGAAACACACGUUGUGGUAUAUUACCUGGUA [U5C G21C] | 0.6

Variant | self-cleavage
GUCCUCUUUCACGUGCGCGUGAAACAGAGAAGUGAACCCGAGAAACACACGUUGUGGUAUAUUACCUGGUA [G25C A39C] | 0.324
GUCCUCUUUCACGUGCGCGUGAAAGAGAGAAGUGAAACAGAGAAACACACGUUGUGGUAUAGUACCUGGUA [C37A U62G] | 0.127
GUCCUCUUUCACGUGCGCGUGAAAGAGUGAAGUGAACCAGAGAAACACACGUUGUGGUAUAUUUCCUGGUA [A28U A64U] | 0.0714
GUCGUCUUUCACGUGCGCGUGAAAGAGAGUAGUGAACCAGAGAAACACACGUUGUGGUAUAUUACCUGGUA [C4G A30U] | 0.175
GUCCUCUAUCACGUGCGCGUGAAAGAGAGAAGAGAACCAGAGAAACACACGUUGUGGUAUAUUACCUGGUA [U8A U33A] | 0.0975
GUCCUCUUUCACGUGCGCGUGAAAGAGAGAAGUGAACCAGAGAAACACACGUUGUGGUAUAAUAGCUGGUA [U62A C65G] | 0.101
GUCCUUUUUCAGGUGCGCGUGAAAGAGAGAAGUGAACCAGAGAAACACACGUUGUGGUAUAUUACCUGGUA [C6U C12G] | 0.661
GUCCUCUUUAACGUGCGCGUGAAAGAGAGAAGUGAACCAGAGAAACACACGUUGUGGCAUAUUACCUGGUA [C10A U58C] | 0.858
GUCCUGUUUCACGUGCGAGUGAAAGAGAGAAGUGAACCAGAGAAACACACGUUGUGGUAUAUUACCUGGUA [C6G C18A] | 0.645
GUCCUCUUUCACGUGCGCGUGAAAGAUAGAAGUGAACCAGAGAGACACACGUUGUGGUAUAUUACCUGGUA [G27U A44G] | 0.193
GUCCGCUUUCACGUGCGCGUGAAAGAGAGAAGUGAACCAGAGAAACACACGUUGUGGUAUAUUACCUGGUG [U5G A71G] | 0.207
GUCCUCUUUCACGUGCGCGUGAAAGAGAGAAAUGUACCAGAGAAACACACGUUGUGGUAUAUUACCUGGUA [G32A A35U] | 0.153
GUCCUCUUUCACGUCCGCGUGAAAGAGAGAAGUGAACCAGAGAAACACACGUUGCGGUAUAUUACCUGGUA [G15C U55C] | 0.276
GUCCUUUUUCACGUCCGCGUGAAAGAGAGAAGUGAACCAGAGAAACACACGUUGUGGUAUAUUACCUGGUA [C6U G15C] | 0.722
GUCCUCUUUCACGUACGCGUUAAAGAGAGAAGUGAACCAGAGAAACACACGUUGUGGUAUAUUACCUGGUA [G15A G21U] | 0.841
GUCCUCUUUCACGUGCGCGUGAAUGAGAGAAGUGAACCAGAGAAACACACGUUGUGGUAUAUUACCUGGUA [A24U] | 0.868
GUCCUCUUUCACGUACGCGUGAAAGAGAGAAGUGAACCAGAGAAACACACGAUGUGGUAUAUUACCUGGUA [G15A U52A] | 0.863
GUCCUCUUUCACGUGCGCGUGAAAGAGAGAAGUGCUCCAGAGAAACACACGUUGUGGUAUAUUACCUGGUA [A35C A36U] | 0.606
GUCCUCUUUCACGUGCGCGUGAAAGAGAGAAGAGAACCAGAGAAACACACGUUGUGGUAUAUUACCUUGUA [U33A G68U] | 0.162
